This assay concerns the target integrin αVβ6 heterodimer (integrin alpha-V, ITGAV, and integrin beta-6, ITGB6) (human (endogenous in HEK293T)) (UniProt P18564).

Data on one substance can be found in paper PMC5676692.

UniProt P18564, sequence (P18564 whole entry, looked up, one chain of several): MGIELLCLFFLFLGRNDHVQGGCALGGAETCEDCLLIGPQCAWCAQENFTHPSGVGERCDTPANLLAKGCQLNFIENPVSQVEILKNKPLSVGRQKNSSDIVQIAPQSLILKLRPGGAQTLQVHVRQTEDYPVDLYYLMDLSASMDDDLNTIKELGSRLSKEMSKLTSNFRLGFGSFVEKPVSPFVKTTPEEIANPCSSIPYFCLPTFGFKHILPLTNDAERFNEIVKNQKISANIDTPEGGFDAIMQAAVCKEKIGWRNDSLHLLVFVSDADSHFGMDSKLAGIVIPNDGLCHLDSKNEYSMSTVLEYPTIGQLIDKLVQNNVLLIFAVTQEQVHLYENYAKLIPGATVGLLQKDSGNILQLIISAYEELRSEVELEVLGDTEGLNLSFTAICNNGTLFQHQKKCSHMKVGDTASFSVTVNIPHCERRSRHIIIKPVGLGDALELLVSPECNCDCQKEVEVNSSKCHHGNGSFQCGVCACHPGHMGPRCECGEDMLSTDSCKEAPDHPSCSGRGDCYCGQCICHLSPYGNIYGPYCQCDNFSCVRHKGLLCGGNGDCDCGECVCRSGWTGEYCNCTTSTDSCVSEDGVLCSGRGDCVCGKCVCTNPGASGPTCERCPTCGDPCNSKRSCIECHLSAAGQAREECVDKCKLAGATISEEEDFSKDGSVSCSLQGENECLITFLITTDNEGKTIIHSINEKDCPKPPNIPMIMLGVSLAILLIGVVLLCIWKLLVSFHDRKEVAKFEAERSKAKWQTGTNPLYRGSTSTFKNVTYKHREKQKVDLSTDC

Regarding “control AAV9 viral particle (unmodified AAV9 capsid) (from UniProt Q6JC40 1-736; Q6JC40 138-736; Q6JC40 203-736) (complex)”, the AAV9-GFP transduction (GFP+ cells after 24 h) of HEK293T, Hela or U87 cells pre-treated for 2 h with 20 µg/ml of a mouse anti-human αVβ6 functional blocking antibody, against PBS control came out at 50%.
